# Results published in a protein production outcome set (Wang et al. 2014).
# Assay: label from the status in PepcDB records
row,Sequence,protein production
1,ELHPRTGRLVSLSACGRTARRQQPGQEFNHGLVLSREPLRDGRVFTVRIDRKVNSWSGSIEIGVTALDPSVLDFPSSATGLKGGSWVVSGCSVLRDGRSVLEEYGQDLDQLGEGDRVGVERTVAGELRLWVNGRDCGVAATGLPPRVWAVVDLYGKCTQITVL,not failed
2,ELTIPKGAVSEIVTLSETFNQMAALLAEREQAILDSRGNRFARLIDGMSDKSFYCSLDPDGQLAQVSEGVTKVLGIPPELLKRKYQRLFSANPLNEKNWEYTDLALKGQNVPPHQIELVDAKGQARRLDVFMQPLVSDT,failed
3,EMFYFEPVNIKKYLGSIGSELSDEVITIEQFFNLNSEYITIIDARSPREFSEKTISNAVNIPLFLTEEYETIGKLYKHEGKEVAIAKAGIIIQDGIKRIVSESLKLDPNKNLVVFCARGGMRSQSIATILKLLGFKVKRLVGGFKSYNISKT,failed
4,EMTDLQSTHKNFLFEIEEVGIKNLTYPVLIDQYQTAGLFSFSTSLNKNEKGINMSRILESVEKHYDNGIELEFNTLHQLLRTLQDKMNQNAAGVDVSGKWFFDRYSPVTNIKAVGHADVTYGLAIENHTVTRKELTIQAKVTTLCPCSKEISEYSAHNQRGIVTVKAYLDKNNDVIDDYKDKILDAMEANASSILYPILKRPDEKRVTERAYENPRFVEDLIRLIAADLVEFDWIEGFDIECRNEESIHQHDAFARLKYRK,not failed
5,EPTFVVAQIKEIIDHPDSDHLHICQAEINDGKTVQIVCGAPNASVGLKTVAALPGAMMPNGSLIFPGKLRGEDSFGMLCSARELALPNAPQVRGIIELSDQVIVGESFDANK,failed
6,EPVQLTVPQMLAQLQGTDTSLRYYAAWWLGKFGLETATAAERQAIVSALIAALADEADRTELGGYPLRRNAARALGKLGDRQAVPALIECLRCEDFYVREAAAIALGQLGDPRAIAPLQSLLEGGVAMARLVPGRPHLVQPVEAVIESLGHLGATEAIALIEPFLAHEMPRVQFAAARALFQLTGDAVYGDRLLAALNSEDVQLRRTALLDLGAMGYLPAAEAILQAGVEASFKLIALHGILGQQLRQAAPAEQTLSLFQGLDQLL,failed
7,EQDIVANGGEVLGSETVGDVSLFFLNPVGHIHHWVTDAWGGSAELKFNSSPWFGNQDVAKFAMDAGASYDSQFYGVELKVTF,failed
8,EQQGKFDWMLRDLYDGVPGIEMIVVLSADGLRIARYSGDPDAADRVAAACAGLQSLASAVSQEIPTSDGDMKMVLIEMNGGYFYLMAAGPNAYLAVLSDVRCEPGRMGLSMADLVARIGPHLTSPARR,failed
9,EQYGDLPPRVFECRLAMVQPSSVVSGNNRWSTAANDMLKTVAQCGLIDIEVYSLFNNVAAVLIHMRDGIINDKLVELMLCRRSDEDYMSRKDHDFRLRRQ,failed
10,ERIRYESQIKRFNRIMDTTMENIPAGIVVKDIENDFRYIYRNRESYNRDISSENAIGMNDFDYYPPEMAQQKRKEDMEIAATGKGMHWIMEGKDKNGNLLILDKQKIMVESEDFSPIIVSIEWDIT,failed
11,ERKRREKRLEETSSRLEALFENSPDMIDVLDADGTICEVNQRFCAELGYDESEVLGRSIWEFDLMFDAEDVQTQLSGFSVDERRKFEGLYERRDGSTMSVEVHLLRFNLEGEDRFLAISRDIT,not failed
12,ERNKTLYWGGALWSPPSNWNPFTPWNAVAGTIGLVYEPLFLYDPLNDKFEPWLAEKGEWVSNNEYVLTLRKGLRWQDGVPLTADDVVFTFEIAKKYTGISYSPVWNWLGRIERVDERTLKFVFSDPRYQEWKQMLINTPIVPKHIWENKTEEEVLQAANENPVGSGPYYVESWADDRCVFKKNGNWWGIRELGYDPKPERIVELRVLSNNVAVGMLMKGELDWSNFFLPGVPVLKKAYGIVTWYENAPYMLPANTAGIYINVNKYPLSIPEFRRAMAYAINPEKIVTRAYENMVTAANPAGILPLPGYMKYYPKEVVDKYGFKYDPEMAKKILDELGFKDVNKDGFREDPNGKPFKLTIECPYGWTDWMVSIQSIAEDLVKVGINVEPKYPDYSKYADDLYGGKFDLILNNFTTGVSATIWSYFNGVFYPDAVESEYSYSGNFGKYANPEVETLLDELNRSNDDAKIKEVVAKLSEILLKDLPFIPLWYNGAWFQASEAVWTNWPTEKNPYAVPIGWNGWWQLTGIKTLFGIEAK,not failed
13,ESEPYVRLTTLRQLHQVMADMNTARSLADTLQTVADGVVNGLGYELACVNLVRPDGDLVVAAFAGNSAAEALITGRVGSRVSWDRRLDMGEAWGDLRFIPHTEGWVLDEDDVPQWYTDGPEPRFEDEWHPSDRLFAPMYTPGVQGASCGELIGVLSVDRPRNGRKPGAWGREALQMYAFQAAIAISNARLRANMQRALVRLEREQQALRASEESFRQAFEYAPS,failed
14,ETSDQRKAEEHIEKEAKYLASLLDAGNLNNQANEKIIKDAGGALDVSASVIDTDGKVLYGSNGRSADSQKVQALVSGHEGILSTTDNKLYYGLSLRSEGEKTGYVLLSASEKSDGLKGE,not failed
15,FANTATVAVSQIVEHPALDATRQGLLDGLKAKGYEEGKNLEFDYKTAQGNPAIAVQIARQYVGESPDVLVGIATPSAQALVSATRTIPVVFTAVTDPVGAKLVKSMKQPGKNVTGLSDLSPVAQHVELIQEILPQVKSIGVVFNPGEANAVTLVNLLKESAEAKGIKVVEATALKSADVQSATQAIAAKSDILYAPTDNTVASAIEGMIVAANQAKKPVFGGATSYVEKGAIAGLGFDYYQVGVQTADYVAAILDGQEPGKLDVKVATGSDLVINESAASKLGIQLPSSVVQRATSMQ,failed
16,FDENWGADEELLLIDACETLGLGNWADIADYVGNARTKEECRDHYLKTYIE,not failed
17,FEKVYHLKLSIKGITPQIWRRIQVPENYTFLDLHKAIQAVMDWEDYHLHEFEMVNPKTGMLDKIGAEGDDFDAFGGPLVSEKKAKLSDYFTLENKEALYTYDFGDNWQVKVRLEKILPRKEGVEYPICTAGKRAAVPEDSGGVWGYEEMLEVLKDSEHEEYEDTVLWLGDDFDPEYFDPKDVS,failed
18,FGKVTSSQQVAQRLLQEMKGLQQEHLICIYLNTKNDIIQQKTIFKGSLNQSIAHPREIFREAVKYSSARILLAHNHPSGNPTPSPQDIQFTKRMEECGEMMGIQLLDHIILGDSGYISLREENFFASE,failed
19,FIFFNQPKTPEESIQLLGAQAGDTESFRVTLDRIPPQIQKLSFTATLDGAGQMSQVAPGYLRIVAGGEEVARYSFTGSEFSTERAVMLGDFYLKDVWRFAAVGQGFDGGLDALL,failed
20,FNGWSWSLGGNIGFNKSKIGDLGFAPTDFGTLKNVRGYQGTSIGDHFGIANLFIAGEAPGLFFGYKTQGIIQPEDIVDGKVAYTAADGSTKYYSSSVANDLGAGNIKAVDMNEDGVVDEKDKTILGNPNPDFTYGFQTRIAWKDLSVSASFNGVHGNQILNTNIRYYTPSRQAGNLTQEAFRNIWTEENHSNLYPSATANVKNVVYDRYIEDGSYLRCSDITLNYTLPKSWMKKIGFQNIGVFASVKNAFVITNYSGYDPEINSFAFDGLRPGIDMNAFPSQRSYVFGLNVAF,failed
21,FQDFEYPDYDDYRAEAFLHQQKRMECYSKAKEAYRIGKKNVATFYAQQGTLHEQKMKEANHLAAIEIFEKVNASLLPQNVLDLHGLHVDEALEHLMRVLEKKTEEFKQNGGKPYLSVITGRGNHSQGGVARIKPAVIKYLISHSFRFSEIKPGCLKVMLK,failed
22,FVWHEYENAAEAAQSLADAVADALQGALDEKGGAVLAVSGGRSPIAFFNALSQKDLDWKNVGITLADERIVPTVHADSNTGLVREYLLKNKAEAAMWIPMVEDGKTETELHPDAVVDYALKHYKQPDVLVLGMGNDGHTASIFPKAPQFQTAIDGSAGVALVHTTPVTAPHERVSMTLDAIAHTGHVFLAIRGEEKKAVFDQAAQGENREYPINLVLNHQGVNCHV,failed
23,FYTNRTVVKLMTMIMAPQPGESVYDPTCGSGGLLLNCALHLKDEGKEYRTLKLYGQEINLLTSAIARMNMFMHGIEEFDIVRGNTLSNPGLLENDELKKFNVILANPPYSIKSWDRKAFESDPYGRNVWGTPPQGCADYAFQQHIQKSLDLGNGRSISLWPHGILFRDAETAMRRKMIEQDQVECVIGLGPNLFYNSPMEACLLITKTNKIESKKDKILFINAVKEVRQDKNIGYLDQVHIDKIFNAYNKFENED,failed
